62 sequences from the supplement of paper PMC7877785 can be followed below.

The nature of this data set: self-splicing fitness, log relative to wild type (ln ratio); higher = more splicing; Tetrahymena group I intron in knt gene, E. coli kanamycin selection, DiMSum; sequences stand for … in CUCUCU…GGAGGGAAAAGUUAUCAGGCAUGCACCUGGUAGCUAGUCUUUAAACCAAUAGAUUGCAUCGGUUUAAAAGGCAAGACCGUCAAAUUGCGGGAAAGGGGUCAACAGCCGUUCAGUACCAAGUCUCAGGGGAAACUUUGAGAUGGCCUUGCAAAGGGUAUGGUAAUAAGCUGACGGACAUGGUCCUAACCACGCAGCCAAGUCCUAAGUCAACAGAUCUUCUGUUGAUAUGGAUGCAGUUCACAGACUAAAUGUCGGUCGGGGAAGAUGUAUUCUUCUCAUAAGAUAUAGUCGGACCUCUCCUUAAUGGGAGCUAGCGGAUGAAGUGAUGCAACACUGGAGCCGCUGGGAACUAAUUUGUAUGCGAAAGUAUAUUGAUUAGUUUUGGAGUACUCGUGGUCG
The essentials: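 The eight P1ex-region nucleotides of an intron in the knt kanamycin-resistance gene on pET-22b(+) were all randomised and the library put into E. coli BL21(DE3). Six replicate transformations were grown overnight at 37°C or 30°C on LB agar with or without 25 μg/mL kanamycin, together with 100 μg/mL carbenicillin, 50 μM IPTG and 0.2% rhamnose. Colonies were pooled and amplicon-sequenced on an Illumina HiSeq 2500. Fitness from DiMSum is the error-weighted combination of wild-type-normalised replicate fold changes, kanamycin over none.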

± gives the uncertainty stated by the source.

For the sequence UGAGAGCAAUAUUACGCAGU, the “self-splicing fitness (ln)” value is, setting by setting: (30 °C) -4.62 ± 0.34; (37 °C) -2.41 ± 0.18.
Consider UGAGAGCAAUAUUACGCAUC, for which the “self-splicing fitness (ln)” value is -4.1 ± 0.46 (30 °C) and -1.8 ± 0.19 (37 °C).
UGAGAGCAAUAUUACGCUAC: under “30 °C”, the “self-splicing fitness (ln)” value is -2.4 ± 0.49.
With UGAGAGCAAUAUUACGCUCA, the “self-splicing fitness (ln)” value (37 °C) was -1.22 ± 0.38.
For UGAGAGCAAUAUUACGGAGU, for the setting “30 °C”, the “self-splicing fitness (ln)” value was -2.89 ± 0.29.
Turning to UGAGAGCAAUAUUACGGAUU, where the note is “30 °C”, the “self-splicing fitness (ln)” value was -3.39 ± 0.29.
UGAGAGCAAUAUUACGGCGU: the “self-splicing fitness (ln)” value by setting is: (30 °C) -4.04 ± 0.35; (37 °C) -2.81 ± 0.34.
UGAGAGCAAUAUUACGUACU: the “self-splicing fitness (ln)” value (37 °C) was -1.87 ± 0.25.
Consider UGAGAGCAAUAUUACGUCGG, for which the “self-splicing fitness (ln)” value was -2.21 ± 0.2 (30 °C) and -1.77 ± 0.31 (37 °C).
As to UGAGAGCAAUAUUACGUGCA, the “self-splicing fitness (ln)” value is -1.53 ± 0.087 (30 °C) and -0.611 ± 0.1 (37 °C).
UGAGAGCAAUAUUACGUUCG: the “self-splicing fitness (ln)” value is, setting by setting: (30 °C) -2.08 ± 0.13; (37 °C) -1.3 ± 0.15.
For the sequence UGAUAGCAAUAUUACGAAAU, the “self-splicing fitness (ln)” value runs as follows: (30 °C) -2.83 ± 0.34; (37 °C) -2.19 ± 0.27.
As for UGAUAGCAAUAUUACGAAGA, the “self-splicing fitness (ln)” value reads like this: (30 °C) -2.56 ± 0.26; (37 °C) -1.97 ± 0.22.
UGAUAGCAAUAUUACGAGAG: the “self-splicing fitness (ln)” value was -3.29 ± 0.43 (30 °C) and -1.65 ± 0.18 (37 °C).
For UGAUAGCAAUAUUACGAGCA the same measures were -0.12 ± 0.094 and -0.0253 ± 0.14.
For UGAUAGCAAUAUUACGAGUC the same measures were -3.08 ± 0.22 and -3.08 ± 0.4.
UGAUAGCAAUAUUACGAUGG: the “self-splicing fitness (ln)” value is -1.56 ± 0.11 (30 °C) and -1.72 ± 0.16 (37 °C).
Take UGAUAGCAAUAUUACGCAAA: the “self-splicing fitness (ln)” value (30 °C) is -2.25 ± 0.19 and the “self-splicing fitness (ln)” value (37 °C) was -0.0467 ± 0.16.
For UGAUAGCAAUAUUACGCCUG the same measures were 0.213 ± 0.14 and 0.502 ± 0.2.
The corresponding values for UGAUAGCAAUAUUACGCGGA are -2.4 ± 0.48 and -0.465 ± 0.29.
As for UGAUAGCAAUAUUACGGGCU, the “self-splicing fitness (ln)” value (30 °C) is -2.42 ± 0.13 and the “self-splicing fitness (ln)” value (37 °C) is -2.11 ± 0.14.
For UGAUAGCAAUAUUACGGGUC the same measures were -4.2 ± 0.34 and -2.63 ± 0.37.
The corresponding values for UGAUAGCAAUAUUACGUACC are -1.76 ± 0.2 and -1.6 ± 0.26.
Take UGAUAGCAAUAUUACGUCGC: the “self-splicing fitness (ln)” value (37 °C) was -2.13 ± 0.39.
For the sequence UGAUAGCAAUAUUACGUCUA, the “self-splicing fitness (ln)” value is 0.0941 ± 0.089 (30 °C) and -0.107 ± 0.094 (37 °C).
The corresponding values for UGAUAGCAAUAUUACGUGGA are -3.45 ± 0.3 and -2.23 ± 0.2.
With UGAUAGCAAUAUUACGUGGG, the “self-splicing fitness (ln)” value reads like this: (30 °C) -2.86 ± 0.17; (37 °C) -0.621 ± 0.11.
UGAUAGCAAUAUUACGUUUA: the “self-splicing fitness (ln)” value (30 °C) is -2.2 ± 0.12 and the “self-splicing fitness (ln)” value (37 °C) was -0.742 ± 0.1.
For UGCAAGCAAUAUUACGAAAU the same measures were -3.34 ± 0.2 and -2.04 ± 0.22.
Turning to UGCAAGCAAUAUUACGAAGG, the “self-splicing fitness (ln)” value by setting is: (30 °C) -1.6 ± 0.12; (37 °C) -1.47 ± 0.2.
The corresponding values for UGCAAGCAAUAUUACGAAUA are -1.88 ± 0.12 and -1.04 ± 0.13.
The corresponding values for UGCAAGCAAUAUUACGACAA are -0.541 ± 0.088 and 0.237 ± 0.1.
The corresponding values for UGCAAGCAAUAUUACGCAAC are -1.9 ± 0.26 and -2.11 ± 0.28.
Regarding UGCAAGCAAUAUUACGCAGC, the “self-splicing fitness (ln)” value runs as follows: (30 °C) -3.6 ± 0.23; (37 °C) -2.58 ± 0.23.
For UGCAAGCAAUAUUACGCUCC, the “self-splicing fitness (ln)” value (30 °C) is -0.565 ± 0.2 and the “self-splicing fitness (ln)” value (37 °C) was -1.37 ± 0.34.
As for UGCAAGCAAUAUUACGGACC, the “self-splicing fitness (ln)” value was -0.803 ± 0.088 (30 °C) and -1.12 ± 0.16 (37 °C).
The corresponding values for UGCAAGCAAUAUUACGGAGA are -2.45 ± 0.21 and -3.01 ± 0.29.
For UGCAAGCAAUAUUACGGAGU the same measures were -2.83 ± 0.14 and -3.18 ± 0.16.
Consider UGCAAGCAAUAUUACGGCUA, for which the “self-splicing fitness (ln)” value runs as follows: (30 °C) 0.00387 ± 0.089; (37 °C) -0.123 ± 0.1.
In the case of UGCAAGCAAUAUUACGGGAA, the “self-splicing fitness (ln)” value (30 °C) was -2.94 ± 0.16 and the “self-splicing fitness (ln)” value (37 °C) is -1.33 ± 0.12.
For UGCAAGCAAUAUUACGGGCU the same measures were -1.12 ± 0.11 and -1.48 ± 0.14.
The corresponding values for UGCAAGCAAUAUUACGGGUG are -0.825 ± 0.051 and -0.33 ± 0.065.
The corresponding values for UGCAAGCAAUAUUACGGUAG are -0.738 ± 0.073 and -0.376 ± 0.081.
Regarding UGCAAGCAAUAUUACGGUGC, the “self-splicing fitness (ln)” value (30 °C) is -3.59 ± 0.16 and the “self-splicing fitness (ln)” value (37 °C) was -2.49 ± 0.19.
In the case of UGCAAGCAAUAUUACGUGAA, the “self-splicing fitness (ln)” value was -2.26 ± 0.1 (30 °C) and -1.03 ± 0.11 (37 °C).
For UGCAAGCAAUAUUACGUGCU the same measures were -2.02 ± 0.1 and -0.559 ± 0.094.
UGCAAGCAAUAUUACGUUCG: the “self-splicing fitness (ln)” value was -0.427 ± 0.048 (30 °C) and -0.226 ± 0.067 (37 °C).
For UGCAAGCAAUAUUACGUUUG the same measures were -4.16 ± 0.33 and -2.87 ± 0.33.
UGCCAGCAAUAUUACGAACU: the “self-splicing fitness (ln)” value is -2.14 ± 0.11 (30 °C) and -0.854 ± 0.13 (37 °C).
The corresponding values for UGCCAGCAAUAUUACGAAUG are -1.3 ± 0.18 and 0.0957 ± 0.17.
For UGCCAGCAAUAUUACGACCC the same measures were -3.56 ± 0.24 and -1.42 ± 0.21.
As to UGCCAGCAAUAUUACGAGUU, the “self-splicing fitness (ln)” value runs as follows: (30 °C) -2.53 ± 0.17; (37 °C) -0.56 ± 0.14.
For the sequence UGCCAGCAAUAUUACGAUUG, the “self-splicing fitness (ln)” value (30 °C) is -1.63 ± 0.078 and the “self-splicing fitness (ln)” value (37 °C) is -0.196 ± 0.086.
UGCCAGCAAUAUUACGCAGA: the “self-splicing fitness (ln)” value was -2.81 ± 0.2 (30 °C) and -1.66 ± 0.14 (37 °C).
In the case of UGCCAGCAAUAUUACGCAUU, the “self-splicing fitness (ln)” value is, setting by setting: (30 °C) -3.81 ± 0.46; (37 °C) -1.24 ± 0.21.
For UGCCAGCAAUAUUACGCCAG the same measures were -3.29 ± 0.18 and -2.39 ± 0.27.
The corresponding values for UGCCAGCAAUAUUACGCCGG are -4.03 ± 0.21 and -3.05 ± 0.25.
For UGCCAGCAAUAUUACGCCGU the same measures were -3.97 ± 0.39 and -2.32 ± 0.32.
With UGCCAGCAAUAUUACGCCUG, the “self-splicing fitness (ln)” value by setting is: (30 °C) -2.1 ± 0.16; (37 °C) -0.0397 ± 0.12.
The corresponding values for UGCCAGCAAUAUUACGCGGA are -2.24 ± 0.1 and -1.32 ± 0.094.
In the case of UGCCAGCAAUAUUACGCUCG, the “self-splicing fitness (ln)” value was -0.839 ± 0.086 (30 °C) and -0.622 ± 0.14 (37 °C).
The corresponding values for UGCCAGCAAUAUUACGGCAC are -2.9 ± 0.33 and -2.56 ± 0.3.
